Measured values reported in the supplement of paper PMC9112550, “Optimization of the antimicrobial peptide Bac7 by deep mutational scanning” (BMC Biology, 2022).

System: Escherichia coli TOP10
Test: shrunken log2 fold change of peptide-encoding DNA abundance (4.5 h post-induction vs induction); higher = less antimicrobial activity (less host growth inhibition)
Conditions: time post-induction: 4.5 h; library: site-saturation at positions 5, 18, 19, 20
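Also: peptides expressed intracellularly from a pBAD plasmid library in pooled LB shake-flask culture, induced with 0.3% L-arabinose, DNA abundance read by NGS, three biological replicates, DESeq2 with apeglm shrinkage.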

Sequence	shrunken log2 fold change
RRIRFRPPRLPRPRPRPIDEPRP	0.121
RRIRTRPPRLPRPRPRPNDNPRP	-0.739
RRIRIRPPRLPRPRPRPTGFPRP	-0.0748
RRIRQRPPRLPRPRPRPPCGPRP	0.184
RRIRARPPRLPRPRPRPNQFPRP	-0.014
RRIRERPPRLPRPRPRPHMKPRP	-0.286
RRIRQRPPRLPRPRPRPSFFPRP	-0.287
RRIRHRPPRLPRPRPRPLVWPRP	0.482
RRIRDRPPRLPRPRPRPPAAPRP	1.13
RRIRRRPPRLPRPRPRPLNSPRP	0.134
RRIRHRPPRLPRPRPRPAGVPRP	0.141
RRIRARPPRLPRPRPRPEFIPRP	-0.189
RRIRYRPPRLPRPRPRPLGCPRP	-0.198
RRIRQRPPRLPRPRPRPPFPPRP	0.243
RRIRHRPPRLPRPRPRPRFFPRP	0.152
RRIRARPPRLPRPRPRPWDAPRP	0.108
RRIRVRPPRLPRPRPRPSKEPRP	-0.263
RRIRKRPPRLPRPRPRPQVEPRP	0.248
RRIRMRPPRLPRPRPRPMDWPRP	0.15
RRIRDRPPRLPRPRPRPFHSPRP	-0.13
RRIRHRPPRLPRPRPRPVIHPRP	-0.283
RRIRNRPPRLPRPRPRPRIQPRP	0.0619
RRIRRRPPRLPRPRPRPIHTPRP	0.00898
RRIRARPPRLPRPRPRPADIPRP	-0.245
RRIRHRPPRLPRPRPRPLKCPRP	-0.024

Sequence	shrunken log2 fold change
RRIRFRPPRLPRPRPRPTSGPRP	0.219
RRIRHRPPRLPRPRPRPAELPRP	-0.00261
RRIRNRPPRLPRPRPRPQVDPRP	-0.706
RRIRSRPPRLPRPRPRPWDAPRP	0.069
RRIRLRPPRLPRPRPRPMIMPRP	-0.159
RRIRDRPPRLPRPRPRPSDKPRP	0.0657
RRIRWRPPRLPRPRPRPSESPRP	0.0933
RRIRNRPPRLPRPRPRPVPEPRP	0.61
RRIRNRPPRLPRPRPRPYMIPRP	0.0323
RRIRIRPPRLPRPRPRPAYAPRP	-0.197
RRIRMRPPRLPRPRPRPGGDPRP	1.58
RRIRQRPPRLPRPRPRPQNAPRP	-0.198
RRIRRRPPRLPRPRPRPNVRPRP	-0.0448
RRIRLRPPRLPRPRPRPLRGPRP	1.11
RRIRGRPPRLPRPRPRPFSYPRP	0.0924
RRIRFRPPRLPRPRPRPPRHPRP	0.411
RRIRPRPPRLPRPRPRPDEQPRP	0.318
RRIRARPPRLPRPRPRPLPDPRP	1.07
RRIRKRPPRLPRPRPRPHQCPRP	-0.0321
RRIRFRPPRLPRPRPRPIYDPRP	-0.626
RRIRNRPPRLPRPRPRPMQPPRP	-0.000687
RRIRVRPPRLPRPRPRPPAGPRP	0.522
RRIRARPPRLPRPRPRPADSPRP	0.00021
RRIRKRPPRLPRPRPRPPATPRP	0.773
RRIRQRPPRLPRPRPRPNYVPRP	-0.426

Sequence	shrunken log2 fold change
RRIRKRPPRLPRPRPRPYWGPRP	-0.000921
RRIRYRPPRLPRPRPRPKMHPRP	-0.561
RRIRLRPPRLPRPRPRPPSWPRP	0.0349
RRIRARPPRLPRPRPRPDIMPRP	0.0619
RRIRRRPPRLPRPRPRPSNEPRP	-0.105
RRIRMRPPRLPRPRPRPQIVPRP	-0.163
RRIRFRPPRLPRPRPRPCDSPRP	-0.0928
RRIRVRPPRLPRPRPRPFFVPRP	-0.0592
RRIRDRPPRLPRPRPRPAAHPRP	0.66
RRIRERPPRLPRPRPRPYMYPRP	-0.501
RRIRGRPPRLPRPRPRPIQQPRP	0.0149
RRIRDRPPRLPRPRPRPGTHPRP	0.129
RRIRRRPPRLPRPRPRPLKNPRP	0.29
RRIRERPPRLPRPRPRPFVRPRP	-0.146
RRIRSRPPRLPRPRPRPIIDPRP	-0.178
RRIRVRPPRLPRPRPRPAEEPRP	0.113
RRIRNRPPRLPRPRPRPNHPPRP	-0.318
RRIRKRPPRLPRPRPRPWDGPRP	-0.0231
RRIRHRPPRLPRPRPRPRTAPRP	0.264
RRIRKRPPRLPRPRPRPYNWPRP	-0.155
RRIRNRPPRLPRPRPRPDSVPRP	0.119
RRIRYRPPRLPRPRPRPPLIPRP	-0.185
RRIRRRPPRLPRPRPRPSYAPRP	0.0616
RRIRMRPPRLPRPRPRPSSYPRP	0.236
RRIRDRPPRLPRPRPRPVDSPRP	-0.0208

Sequence	shrunken log2 fold change
RRIRVRPPRLPRPRPRPIFYPRP	-0.378
RRIRFRPPRLPRPRPRPLEQPRP	0.0789
RRIRQRPPRLPRPRPRPCCIPRP	-0.159
RRIRARPPRLPRPRPRPMHWPRP	0.548
RRIRTRPPRLPRPRPRPQKWPRP	-0.147
RRIRFRPPRLPRPRPRPCLPPRP	-0.783
RRIRLRPPRLPRPRPRPQCTPRP	0.0199
RRIRFRPPRLPRPRPRPHGWPRP	0.309
RRIRPRPPRLPRPRPRPELVPRP	0.442
RRIRWRPPRLPRPRPRPQFWPRP	0.105
RRIRWRPPRLPRPRPRPVAGPRP	0.524
RRIRMRPPRLPRPRPRPYTNPRP	-0.165
RRIRSRPPRLPRPRPRPPYGPRP	-0.401
RRIRCRPPRLPRPRPRPHLNPRP	-0.627
RRIRYRPPRLPRPRPRPQHIPRP	-0.754
RRIRVRPPRLPRPRPRPMSFPRP	-0.157
RRIRMRPPRLPRPRPRPDWPPRP	0.637
RRIRNRPPRLPRPRPRPLQCPRP	-0.00595
RRIRYRPPRLPRPRPRPTFAPRP	-0.321
RRIRPRPPRLPRPRPRPECGPRP	0.525
RRIRQRPPRLPRPRPRPCCGPRP	0.0293
RRIRPRPPRLPRPRPRPTIPPRP	-0.361
RRIRFRPPRLPRPRPRPYTYPRP	-0.141
RRIRIRPPRLPRPRPRPNSVPRP	-0.342
RRIRDRPPRLPRPRPRPCCVPRP	-0.158

Sequence	shrunken log2 fold change
RRIRERPPRLPRPRPRPMEHPRP	0.0106
RRIRMRPPRLPRPRPRPVMWPRP	0.624
RRIRGRPPRLPRPRPRPISYPRP	-0.0956
RRIRTRPPRLPRPRPRPFQYPRP	-0.0476
RRIRERPPRLPRPRPRPHRLPRP	-0.18
RRIRQRPPRLPRPRPRPWIRPRP	-0.166
RRIRFRPPRLPRPRPRPVDHPRP	-0.179
RRIRCRPPRLPRPRPRPGTRPRP	0.139
RRIRMRPPRLPRPRPRPTGPPRP	0.388
RRIRDRPPRLPRPRPRPFALPRP	0.206
RRIRPRPPRLPRPRPRPQIPPRP	-0.0392
RRIRCRPPRLPRPRPRPMYWPRP	0.0082
RRIRYRPPRLPRPRPRPVCWPRP	0.196
RRIRSRPPRLPRPRPRPECFPRP	3.03
RRIRERPPRLPRPRPRPIPQPRP	0.13
RRIRTRPPRLPRPRPRPGTCPRP	-0.00643
RRIRGRPPRLPRPRPRPTQQPRP	0.94
RRIRTRPPRLPRPRPRPVELPRP	-0.0533
RRIRLRPPRLPRPRPRPHFIPRP	-0.249
RRIRERPPRLPRPRPRPTNRPRP	-0.242
RRIRYRPPRLPRPRPRPYREPRP	0.0196
RRIRKRPPRLPRPRPRPEMQPRP	1.92
RRIRHRPPRLPRPRPRPHGNPRP	-1.11
RRIRRRPPRLPRPRPRPNVTPRP	0.0871
RRIRPRPPRLPRPRPRPNISPRP	-0.208

Sequence	shrunken log2 fold change
RRIRDRPPRLPRPRPRPPLQPRP	0.414
RRIRFRPPRLPRPRPRPQVQPRP	-0.0485
RRIRGRPPRLPRPRPRPFPMPRP	0.533
RRIRMRPPRLPRPRPRPPLSPRP	0.185
RRIRYRPPRLPRPRPRPCIIPRP	-1.51
RRIRPRPPRLPRPRPRPNIGPRP	0.0125
RRIRCRPPRLPRPRPRPQLRPRP	-0.127
RRIRFRPPRLPRPRPRPMPDPRP	-0.0671
RRIRIRPPRLPRPRPRPNSNPRP	-0.983
RRIRDRPPRLPRPRPRPQVHPRP	-0.0385
RRIRDRPPRLPRPRPRPCSRPRP	0.0202
RRIRLRPPRLPRPRPRPHPWPRP	-0.0939
RRIRYRPPRLPRPRPRPFAHPRP	-0.00804
RRIRCRPPRLPRPRPRPAWMPRP	-0.0623
RRIRERPPRLPRPRPRPVSGPRP	0.386
RRIRARPPRLPRPRPRPRSFPRP	0.202
RRIRERPPRLPRPRPRPSLAPRP	-0.0635
RRIRTRPPRLPRPRPRPWYKPRP	-0.0134
RRIRTRPPRLPRPRPRPIRRPRP	0.0581
RRIRLRPPRLPRPRPRPKDNPRP	-0.303
RRIRCRPPRLPRPRPRPGHSPRP	-0.347
RRIRDRPPRLPRPRPRPYVCPRP	0.0261
RRIRTRPPRLPRPRPRPLEHPRP	0.104
RRIRARPPRLPRPRPRPWCKPRP	0.102
RRIRLRPPRLPRPRPRPTAGPRP	0.53
